Reference: paper PMC5880214

How the values were obtained:
Test in all cases: EMSA
[1] = biological target: T1, mPOT1a_N (OB-fold domains of mouse POT1a) (mouse, UniProt Q91WC1 1-299)
T1 sequence: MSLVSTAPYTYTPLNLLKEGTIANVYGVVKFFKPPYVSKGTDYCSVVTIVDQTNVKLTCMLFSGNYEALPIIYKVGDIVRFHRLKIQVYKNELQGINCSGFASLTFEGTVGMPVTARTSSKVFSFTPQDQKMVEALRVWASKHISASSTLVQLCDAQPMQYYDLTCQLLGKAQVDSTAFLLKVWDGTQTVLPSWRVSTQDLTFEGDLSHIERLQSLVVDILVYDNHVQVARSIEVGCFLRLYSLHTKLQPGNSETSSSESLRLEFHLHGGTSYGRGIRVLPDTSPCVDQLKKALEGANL

[2] = biological target: T2, AlPOT1a (Arabidopsis lyrata, UniProt B7T1J1 1-467)
T2 sequence: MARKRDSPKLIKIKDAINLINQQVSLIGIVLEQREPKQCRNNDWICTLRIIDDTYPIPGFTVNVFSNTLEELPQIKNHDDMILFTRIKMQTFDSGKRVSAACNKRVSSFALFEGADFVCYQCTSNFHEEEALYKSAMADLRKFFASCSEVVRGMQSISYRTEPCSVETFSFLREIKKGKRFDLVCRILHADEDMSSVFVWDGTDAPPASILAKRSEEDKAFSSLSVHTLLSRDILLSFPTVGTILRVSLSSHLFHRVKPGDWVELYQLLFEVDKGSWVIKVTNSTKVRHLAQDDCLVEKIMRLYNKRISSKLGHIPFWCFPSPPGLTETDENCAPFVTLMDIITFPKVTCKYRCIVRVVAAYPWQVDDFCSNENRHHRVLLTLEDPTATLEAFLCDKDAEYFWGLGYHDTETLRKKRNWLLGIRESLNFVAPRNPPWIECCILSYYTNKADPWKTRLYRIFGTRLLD

[3] = biological target: T3, AtPOT1a (Arabidopsis thaliana, UniProt Q56Y52 1-467)
T3 sequence: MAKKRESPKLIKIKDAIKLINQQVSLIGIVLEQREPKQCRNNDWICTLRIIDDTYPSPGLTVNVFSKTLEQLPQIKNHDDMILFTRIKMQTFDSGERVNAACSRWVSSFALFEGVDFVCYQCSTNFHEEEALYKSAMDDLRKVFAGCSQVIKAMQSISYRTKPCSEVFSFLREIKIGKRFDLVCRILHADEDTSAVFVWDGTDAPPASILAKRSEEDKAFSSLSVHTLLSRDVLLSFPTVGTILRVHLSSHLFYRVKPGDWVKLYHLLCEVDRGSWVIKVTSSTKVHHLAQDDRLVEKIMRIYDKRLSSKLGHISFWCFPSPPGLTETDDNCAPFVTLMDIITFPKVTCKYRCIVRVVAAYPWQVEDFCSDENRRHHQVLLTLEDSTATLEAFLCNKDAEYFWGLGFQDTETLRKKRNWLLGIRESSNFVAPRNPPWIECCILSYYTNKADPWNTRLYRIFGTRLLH

[4] = biological target: T4, AtPOT1b_N (Arabidopsis thaliana, UniProt Q6NKX5 1-300)
T4 sequence: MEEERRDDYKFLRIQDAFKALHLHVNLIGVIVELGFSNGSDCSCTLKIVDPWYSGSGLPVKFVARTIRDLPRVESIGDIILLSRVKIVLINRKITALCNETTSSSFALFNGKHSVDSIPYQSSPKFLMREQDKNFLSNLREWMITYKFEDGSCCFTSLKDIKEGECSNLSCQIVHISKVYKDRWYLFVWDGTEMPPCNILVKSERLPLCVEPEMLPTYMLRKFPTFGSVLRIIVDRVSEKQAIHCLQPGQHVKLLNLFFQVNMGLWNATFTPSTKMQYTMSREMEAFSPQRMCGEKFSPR

[5] = biological target: T5, BoPOT1a (Brassica oleracea (cauliflower, …, UniProt B7T1J7 1-456))
T5 sequence: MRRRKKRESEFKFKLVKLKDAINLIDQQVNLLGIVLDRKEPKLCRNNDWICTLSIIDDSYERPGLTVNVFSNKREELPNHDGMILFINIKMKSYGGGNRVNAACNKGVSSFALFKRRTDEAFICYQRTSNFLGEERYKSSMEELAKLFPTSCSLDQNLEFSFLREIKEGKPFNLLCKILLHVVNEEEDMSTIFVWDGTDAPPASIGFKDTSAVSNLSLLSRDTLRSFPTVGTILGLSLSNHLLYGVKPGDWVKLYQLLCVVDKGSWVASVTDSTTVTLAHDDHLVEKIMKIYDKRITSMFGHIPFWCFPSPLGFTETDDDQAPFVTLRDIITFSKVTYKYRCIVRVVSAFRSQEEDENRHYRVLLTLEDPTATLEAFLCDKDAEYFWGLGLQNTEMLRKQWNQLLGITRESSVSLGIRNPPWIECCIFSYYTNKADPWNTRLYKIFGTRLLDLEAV

[6] = biological target: T6, AlPOT1b (Arabidopsis lyrata, UniProt B7T1J2 1-450)
T6 sequence: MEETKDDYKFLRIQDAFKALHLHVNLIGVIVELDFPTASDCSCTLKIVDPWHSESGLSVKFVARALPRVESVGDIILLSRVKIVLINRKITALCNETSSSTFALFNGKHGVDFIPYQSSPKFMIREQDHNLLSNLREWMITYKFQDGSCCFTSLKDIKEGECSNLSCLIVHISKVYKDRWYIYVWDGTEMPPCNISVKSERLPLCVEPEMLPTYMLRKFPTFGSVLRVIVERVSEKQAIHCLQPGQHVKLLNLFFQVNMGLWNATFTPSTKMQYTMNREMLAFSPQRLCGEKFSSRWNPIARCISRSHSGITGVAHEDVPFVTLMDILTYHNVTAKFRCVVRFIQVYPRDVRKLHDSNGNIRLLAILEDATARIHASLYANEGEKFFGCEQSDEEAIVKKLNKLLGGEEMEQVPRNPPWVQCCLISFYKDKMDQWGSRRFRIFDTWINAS

[7] = biological target: T7, AtPOT1b (Arabidopsis thaliana, UniProt Q6NKX5 1-454)
T7 sequence: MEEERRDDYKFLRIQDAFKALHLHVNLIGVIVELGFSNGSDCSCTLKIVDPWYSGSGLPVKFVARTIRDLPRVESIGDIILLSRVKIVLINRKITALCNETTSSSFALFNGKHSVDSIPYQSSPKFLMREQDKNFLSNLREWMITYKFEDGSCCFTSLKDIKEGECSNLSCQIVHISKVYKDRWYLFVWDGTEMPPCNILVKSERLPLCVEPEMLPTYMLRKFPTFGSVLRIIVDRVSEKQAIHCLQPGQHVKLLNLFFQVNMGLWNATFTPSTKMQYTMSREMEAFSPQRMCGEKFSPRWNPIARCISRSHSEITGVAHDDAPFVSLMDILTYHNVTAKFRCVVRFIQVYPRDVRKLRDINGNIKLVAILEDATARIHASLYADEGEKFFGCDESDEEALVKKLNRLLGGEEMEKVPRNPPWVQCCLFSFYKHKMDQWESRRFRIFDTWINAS

[8] = biological target: T8, AtPOT1a_N (Arabidopsis thaliana, UniProt Q56Y52 1-300)
T8 sequence: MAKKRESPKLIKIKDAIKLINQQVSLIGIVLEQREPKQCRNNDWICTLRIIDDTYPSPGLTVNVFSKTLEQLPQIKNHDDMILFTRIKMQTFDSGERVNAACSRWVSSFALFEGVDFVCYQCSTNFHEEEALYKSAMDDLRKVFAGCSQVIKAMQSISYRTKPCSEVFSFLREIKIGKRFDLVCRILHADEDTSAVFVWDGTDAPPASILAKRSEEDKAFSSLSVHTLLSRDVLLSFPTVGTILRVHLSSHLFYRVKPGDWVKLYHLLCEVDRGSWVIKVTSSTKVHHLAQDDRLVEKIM

[9] = biological target: T9, BoPOT1b (Brassica oleracea (cauliflower, …, UniProt B7T1J8 1-450))
T9 sequence: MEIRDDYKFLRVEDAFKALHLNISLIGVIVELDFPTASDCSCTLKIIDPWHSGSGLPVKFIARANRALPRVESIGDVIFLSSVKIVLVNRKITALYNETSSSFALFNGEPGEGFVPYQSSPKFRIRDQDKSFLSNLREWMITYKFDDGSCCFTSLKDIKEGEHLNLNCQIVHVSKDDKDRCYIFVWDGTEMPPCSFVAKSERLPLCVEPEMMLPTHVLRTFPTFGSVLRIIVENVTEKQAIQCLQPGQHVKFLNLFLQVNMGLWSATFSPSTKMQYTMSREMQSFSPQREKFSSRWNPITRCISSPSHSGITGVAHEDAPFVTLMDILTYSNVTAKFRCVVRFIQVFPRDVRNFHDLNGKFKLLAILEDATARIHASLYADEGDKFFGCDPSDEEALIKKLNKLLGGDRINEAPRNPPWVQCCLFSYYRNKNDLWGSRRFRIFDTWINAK

Question: Does GGTTAGGGTTAG (ssDNA) [(GGTTAG)2 vertebrate telomere repeat] bind [1]?
Answer: binds

Question: Does TTTAGGGTTTAGGG (ssDNA) [(TTTAGGG)2] bind [2]?
Answer: no binding

Question: Does TTTAGGGTTTAGGG (ssDNA) [(TTTAGGG)2] bind [3]?
Answer: no binding

Question: Does TTTAGGGTTTAGGG (ssDNA) [(TTTAGGG)2] bind [4]?
Answer: no binding

Question: Does TTTAGGGTTTAGGG (ssDNA) [(TTTAGGG)2] bind [5]?
Answer: no binding

Question: Does TTTAGGGTTTAGGG (ssDNA) [(TTTAGGG)2] bind [6]?
Answer: no binding

Question: Does TTTAGGGTTTAGGG (ssDNA) [(TTTAGGG)2] bind [7]?
Answer: no binding

Question: Does TTTAGGGTTTAGGG (ssDNA) [(TTTAGGG)2] bind [8]?
Answer: no binding

Question: Does TTTAGGGTTTAGGG (ssDNA) [(TTTAGGG)2] bind [9]?
Answer: no binding

Question: What does the source list for TTTAGGGTTTAGGGTTTAGGGTTTAGGGTTTAGGG (ssDNA) [(TTTAGGG)5]?
Answer: binding result [2]: no binding; binding result [3]: no binding; binding result [4]: no binding; binding result [5]: no binding; binding result [6]: no binding; binding result [7]: no binding; binding result [8]: no binding; binding result [9]: no binding

Question: Does CCCTAAACCCTAAACCCTAAACCCTAAACCCTAAA (ssDNA) [C-rich plant telomere repeat, five copies] bind [3]?
Answer: no binding

Question: Does CCCTAAACCCTAAACCCTAAACCCTAAACCCTAAA (ssDNA) [C-rich plant telomere repeat, five copies] bind [7]?
Answer: no binding
